The results in this text go back to paper PMC6822712.

Among the targets are TrkA (human) (human) (UniProt P04629); TrkC (rat) (rat) (UniProt Q03351); TrkC (human) (human) (UniProt Q16288); TrkB (human) (human) (UniProt Q16620); TrkB (rat) (rat) (UniProt Q63604).
UniProt Q03351, sequence (Q03351 32-864): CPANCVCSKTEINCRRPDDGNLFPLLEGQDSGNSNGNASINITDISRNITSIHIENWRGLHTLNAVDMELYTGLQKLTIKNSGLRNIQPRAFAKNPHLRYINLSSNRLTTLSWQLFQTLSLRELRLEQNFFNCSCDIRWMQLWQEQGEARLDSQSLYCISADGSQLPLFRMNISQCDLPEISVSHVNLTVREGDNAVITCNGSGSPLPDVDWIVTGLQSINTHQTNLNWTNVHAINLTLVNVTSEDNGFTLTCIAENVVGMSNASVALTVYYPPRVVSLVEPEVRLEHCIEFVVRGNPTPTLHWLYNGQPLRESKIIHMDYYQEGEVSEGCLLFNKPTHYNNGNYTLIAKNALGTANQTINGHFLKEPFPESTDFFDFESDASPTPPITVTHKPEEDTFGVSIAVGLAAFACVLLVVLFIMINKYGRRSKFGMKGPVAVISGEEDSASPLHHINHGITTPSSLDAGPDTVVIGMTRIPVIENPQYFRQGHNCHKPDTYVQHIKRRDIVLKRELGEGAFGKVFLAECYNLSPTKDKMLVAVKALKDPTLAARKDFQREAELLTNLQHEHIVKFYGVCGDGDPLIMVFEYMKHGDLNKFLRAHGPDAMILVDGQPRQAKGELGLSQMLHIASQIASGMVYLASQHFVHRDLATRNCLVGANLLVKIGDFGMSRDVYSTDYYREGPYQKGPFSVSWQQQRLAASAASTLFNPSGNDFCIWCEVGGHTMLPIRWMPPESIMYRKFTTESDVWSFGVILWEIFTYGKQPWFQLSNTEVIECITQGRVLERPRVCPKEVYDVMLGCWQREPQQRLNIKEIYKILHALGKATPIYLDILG
UniProt Q63604, sequence (Q63604 32-821): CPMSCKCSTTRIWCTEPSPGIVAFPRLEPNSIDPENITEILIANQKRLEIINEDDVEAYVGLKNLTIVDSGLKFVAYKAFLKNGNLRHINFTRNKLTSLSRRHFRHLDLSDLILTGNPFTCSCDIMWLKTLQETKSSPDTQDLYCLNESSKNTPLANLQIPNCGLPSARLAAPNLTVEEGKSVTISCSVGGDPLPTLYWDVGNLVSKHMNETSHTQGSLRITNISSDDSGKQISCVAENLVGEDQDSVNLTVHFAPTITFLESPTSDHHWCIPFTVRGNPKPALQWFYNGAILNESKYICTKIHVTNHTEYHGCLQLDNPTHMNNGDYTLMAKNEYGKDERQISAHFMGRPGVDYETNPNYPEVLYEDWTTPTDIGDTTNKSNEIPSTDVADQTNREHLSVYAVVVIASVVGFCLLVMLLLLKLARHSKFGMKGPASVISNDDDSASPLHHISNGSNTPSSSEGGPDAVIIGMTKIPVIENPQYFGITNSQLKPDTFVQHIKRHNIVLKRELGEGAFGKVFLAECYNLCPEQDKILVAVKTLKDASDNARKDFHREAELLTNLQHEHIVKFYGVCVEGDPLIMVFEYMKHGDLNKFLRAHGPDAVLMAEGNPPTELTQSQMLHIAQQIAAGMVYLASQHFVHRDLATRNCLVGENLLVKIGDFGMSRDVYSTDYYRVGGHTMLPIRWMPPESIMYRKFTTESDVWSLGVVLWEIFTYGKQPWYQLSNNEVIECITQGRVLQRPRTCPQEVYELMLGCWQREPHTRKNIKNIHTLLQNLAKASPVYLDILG
UniProt Q16620, sequence (Q16620 32-822): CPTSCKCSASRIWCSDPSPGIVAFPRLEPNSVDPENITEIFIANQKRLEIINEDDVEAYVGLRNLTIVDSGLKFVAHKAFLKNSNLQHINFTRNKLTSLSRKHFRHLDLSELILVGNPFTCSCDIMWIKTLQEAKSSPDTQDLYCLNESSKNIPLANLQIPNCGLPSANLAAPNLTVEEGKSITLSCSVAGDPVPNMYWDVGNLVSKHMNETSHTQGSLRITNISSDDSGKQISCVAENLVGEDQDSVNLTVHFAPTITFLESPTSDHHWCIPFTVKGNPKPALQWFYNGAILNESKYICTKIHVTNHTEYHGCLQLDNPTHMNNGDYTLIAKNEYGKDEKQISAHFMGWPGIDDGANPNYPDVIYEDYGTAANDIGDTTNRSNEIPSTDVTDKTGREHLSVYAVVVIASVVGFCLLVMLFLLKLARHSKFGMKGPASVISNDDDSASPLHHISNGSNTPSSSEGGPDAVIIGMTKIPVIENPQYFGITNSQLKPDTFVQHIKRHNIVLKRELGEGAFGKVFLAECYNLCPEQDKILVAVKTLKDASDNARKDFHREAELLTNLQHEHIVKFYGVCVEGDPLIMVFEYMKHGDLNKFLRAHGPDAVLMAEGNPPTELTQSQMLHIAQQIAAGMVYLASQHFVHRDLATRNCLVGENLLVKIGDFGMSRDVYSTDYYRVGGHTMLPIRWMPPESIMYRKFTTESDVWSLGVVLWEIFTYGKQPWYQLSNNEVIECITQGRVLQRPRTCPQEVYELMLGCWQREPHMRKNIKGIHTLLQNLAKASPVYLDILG
UniProt Q16288, sequence (Q16288 32-839): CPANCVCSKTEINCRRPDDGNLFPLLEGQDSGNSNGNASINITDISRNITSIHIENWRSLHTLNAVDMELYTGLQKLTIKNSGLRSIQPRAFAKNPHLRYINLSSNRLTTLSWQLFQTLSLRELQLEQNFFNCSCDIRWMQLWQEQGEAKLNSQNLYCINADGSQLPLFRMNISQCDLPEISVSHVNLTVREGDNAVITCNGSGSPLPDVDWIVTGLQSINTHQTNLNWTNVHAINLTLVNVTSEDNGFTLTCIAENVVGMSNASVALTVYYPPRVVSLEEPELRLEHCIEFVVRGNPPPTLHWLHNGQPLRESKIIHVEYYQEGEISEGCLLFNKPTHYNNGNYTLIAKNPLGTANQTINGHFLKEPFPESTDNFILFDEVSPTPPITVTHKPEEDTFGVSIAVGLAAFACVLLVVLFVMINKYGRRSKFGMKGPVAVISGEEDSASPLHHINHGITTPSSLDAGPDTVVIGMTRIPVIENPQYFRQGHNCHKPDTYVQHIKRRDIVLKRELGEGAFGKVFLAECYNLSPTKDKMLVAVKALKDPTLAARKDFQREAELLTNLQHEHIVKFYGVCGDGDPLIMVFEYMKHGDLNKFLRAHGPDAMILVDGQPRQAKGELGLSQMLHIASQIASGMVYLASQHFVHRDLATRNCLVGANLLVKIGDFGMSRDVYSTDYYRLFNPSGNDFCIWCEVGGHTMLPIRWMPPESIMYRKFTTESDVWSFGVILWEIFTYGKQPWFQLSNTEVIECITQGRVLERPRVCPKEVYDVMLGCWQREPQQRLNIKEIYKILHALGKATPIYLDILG
UniProt P04629, sequence (P04629 33-796): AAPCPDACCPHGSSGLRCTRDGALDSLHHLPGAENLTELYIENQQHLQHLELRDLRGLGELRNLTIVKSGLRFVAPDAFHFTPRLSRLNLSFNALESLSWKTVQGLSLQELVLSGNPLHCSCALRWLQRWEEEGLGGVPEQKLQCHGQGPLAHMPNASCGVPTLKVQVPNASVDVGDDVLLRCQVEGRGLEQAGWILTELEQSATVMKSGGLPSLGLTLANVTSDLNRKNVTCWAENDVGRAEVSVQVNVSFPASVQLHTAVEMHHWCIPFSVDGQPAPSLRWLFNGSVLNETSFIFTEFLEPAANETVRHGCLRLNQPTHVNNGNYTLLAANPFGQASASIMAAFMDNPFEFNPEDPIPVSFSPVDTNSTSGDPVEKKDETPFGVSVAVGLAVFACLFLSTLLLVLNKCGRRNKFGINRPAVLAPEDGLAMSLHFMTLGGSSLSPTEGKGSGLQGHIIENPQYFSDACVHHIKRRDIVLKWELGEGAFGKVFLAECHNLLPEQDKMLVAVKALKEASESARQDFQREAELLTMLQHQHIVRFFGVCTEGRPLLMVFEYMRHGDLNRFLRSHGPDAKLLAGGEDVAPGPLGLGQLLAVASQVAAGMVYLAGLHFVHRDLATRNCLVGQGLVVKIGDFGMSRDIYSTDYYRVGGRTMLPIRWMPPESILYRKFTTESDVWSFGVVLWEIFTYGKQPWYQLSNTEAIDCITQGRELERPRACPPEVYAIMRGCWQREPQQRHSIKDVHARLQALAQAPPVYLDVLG

BDNF (ligand) showed an EC50 of ERK phosphorylation (phospho-ERK AlphaLISA), NIH3T3 cells expressing human TrkA; no response with TrkA (human) (human) of over 100 nM. Besides, in the test with TrkC (rat) (rat), the EC50 of ERK phosphorylation (phospho-ERK AlphaLISA), NIH3T3 cells stably expressing rat TrkC came out at 4.97 nM and the Max (%) of ERK phosphorylation (phospho-ERK AlphaLISA), relative to 10nM NT-3, NIH3T3 cells stably expressing rat TrkC was determined as 76.2%. For the same molecule, in the test with TrkC (human) (human), the EC50 of ERK phosphorylation (phospho-ERK AlphaLISA), NIH3T3 cells stably expressing human TrkC stood at 26.8 nM and the Max (%) of ERK phosphorylation (phospho-ERK AlphaLISA), relative to 10nM NT-3, NIH3T3 cells stably expressing human TrkC was 104%. In the test with TrkB (human) (human), this molecule returned an EC50 of ERK phosphorylation (phospho-ERK AlphaLISA), HEK293 cells stably expressing human TrkB of 0.68 nM and a Max (%) of ERK phosphorylation (phospho-ERK AlphaLISA), relative to 10nM BDNF, HEK293 cells stably expressing human TrkB of 114%. In the test with TrkB (rat) (rat), this molecule showed an EC50 of ERK phosphorylation (phospho-ERK AlphaLISA), HEK293 cells stably expressing rat TrkB of 0.19 nM and a Max (%) of ERK phosphorylation (phospho-ERK AlphaLISA), relative to 10nM BDNF, HEK293 cells stably expressing rat TrkB of 104%.

B1: NT-3 (ligand)
chain: YAEHKSHRGEYSVCDSESLWVTDKSSAIDIRGHQVTVLGEIKTGNSPVKQYFYETRCKEARPVKNGCRGIDDKHWNSQCKTSQTYVRALTSENNKLVGWRWIRIDTSCVCALSRKIGRT
In the test with TrkA (human) (human), B1 gave an EC50 of ERK phosphorylation (phospho-ERK AlphaLISA), NIH3T3 cells expressing human TrkA of 4.35 nM and a Max (%) of ERK phosphorylation (phospho-ERK AlphaLISA), NIH3T3 cells expressing human TrkA of 73.6%. For the same molecule, in the test with TrkC (rat) (rat), the EC50 of ERK phosphorylation (phospho-ERK AlphaLISA), NIH3T3 cells stably expressing rat TrkC was found to be 0.21 nM and the Max (%) of ERK phosphorylation (phospho-ERK AlphaLISA), relative to 10nM NT-3, NIH3T3 cells stably expressing rat TrkC was 103%. In the test with TrkC (human) (human), the EC50 of ERK phosphorylation (phospho-ERK AlphaLISA), NIH3T3 cells stably expressing human TrkC is 0.4 nM and the Max (%) of ERK phosphorylation (phospho-ERK AlphaLISA), relative to 10nM NT-3, NIH3T3 cells stably expressing human TrkC is 106%. Moreover, in the test with TrkB (human) (human), the EC50 of ERK phosphorylation (phospho-ERK AlphaLISA), HEK293 cells stably expressing human TrkB is 2.05 nM and the Max (%) of ERK phosphorylation (phospho-ERK AlphaLISA), relative to 10nM BDNF, HEK293 cells stably expressing human TrkB came to 58.5%. In the test with TrkB (rat) (rat), the EC50 of ERK phosphorylation (phospho-ERK AlphaLISA), HEK293 cells stably expressing rat TrkB stood at 10.7 nM and the Max (%) of ERK phosphorylation (phospho-ERK AlphaLISA), relative to 10nM BDNF, HEK293 cells stably expressing rat TrkB was 83%.
